Biological target: GST-tagged AKT1 (UniProt P31749 1-480)
Assay: pull-down

Sequence of GST-tagged AKT1 (P31749 whole entry): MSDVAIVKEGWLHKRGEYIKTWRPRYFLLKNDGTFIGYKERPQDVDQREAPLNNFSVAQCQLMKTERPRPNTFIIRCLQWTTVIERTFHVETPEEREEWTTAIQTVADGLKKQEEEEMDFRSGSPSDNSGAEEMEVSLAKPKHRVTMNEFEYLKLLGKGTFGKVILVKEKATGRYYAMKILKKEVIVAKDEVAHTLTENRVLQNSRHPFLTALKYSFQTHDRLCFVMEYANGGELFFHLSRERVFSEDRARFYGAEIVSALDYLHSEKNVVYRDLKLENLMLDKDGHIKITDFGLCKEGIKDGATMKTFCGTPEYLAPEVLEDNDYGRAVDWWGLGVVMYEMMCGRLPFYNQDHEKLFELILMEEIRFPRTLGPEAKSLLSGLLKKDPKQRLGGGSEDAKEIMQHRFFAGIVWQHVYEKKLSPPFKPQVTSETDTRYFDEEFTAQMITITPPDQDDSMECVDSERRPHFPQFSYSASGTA

binding result: binds
B1: His-tagged SFN (natural protein, UniProt P31947 1-248, looked up)
chain: MERASLIQKAKLAEQAERYEDMAAFMKGAVEKGEELSCEERNLLSVAYKNVVGGQRAAWRVLSSIEQKSNEEGSEEKGPEVREYREKVETELQGVCDTVLGLLDSHLIKEAGDAESRVFYLKMKGDYYRYLAEVATGDDKKRIIDSARSAYQEAMDISKKEMPPTNPIRLGLALNFSVFHYEIANSPEEAISLAKTTFDEAMADLHTLSEDSYKDSTLIMQLLRDNLTLWTADNAGEEGGEAPQEPQS
